Laboratory results reported in the nanobody polyreactivity screen of Harvey et al. (2022).

Assay: yeast display, Sf9 membrane polyspecificity reagent, FACS + sequencing; frameworks hold sequencing errors
In short: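 Polyreactivity labels are assigned by the sorting gate from which each nanobody was recovered. The gates were low and high (top ~1%), set on anti-HA fluorescence for expression and streptavidin fluorescence for reagent binding. Before sorting, galactose-induced (36–48 hours) yeast display cells were stained for 1 hour at 4 °C with 10% biotinylated, detergent-solubilized Sf9 membrane reagent.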

## QVQLVESGGGLVQAGGSLRLSCAASGSTFYGNAMGWYRQAPGKERELVAAITWGDASTYYADSVKGRFTISRDNAKNTVYLQMNSLKPEDTAVYYCAADFYYAYYWGQGTQVTVSS
  polyreactivity (PSR sort gate): low polyreactivity

## QVQLVESGGGLVQAGGSLRLTCAASGSIFWRNTMGWYRQAPGKERELVAAIRNVGSTYYADSVKGRFTISRDNAKNTVYLQMNSLKPEDTAVYYCAVVYPARGSGNDSWGQGSQVTVSS
  polyreactivity (PSR sort gate): high polyreactivity

## QVQLVESGAGLVQAGGSLRLSCAASGFIFLAYTMGWSRQGPAKERELVAAISTSGGSTYYADSVKGRFTISRDKAKNTVYLEMNSLKPEDTGVYYCAADYSYWRGYDSWGQGTQVTVSS
  polyreactivity (PSR sort gate): high polyreactivity

## QVQHVESVVGLVQAGGSLRLSCAASGSTFGPNAMGWSRQAPGKERELVAAITSGGRTYYADSVKGRFTISRDNAKNTVYLQMNSLKPEDTAVYYCAARVSVGVPRYEYWGQGTQVTVSS
  polyreactivity (PSR sort gate): high polyreactivity

## QVQLVESGGGLVQAGGSLRLSCAASGSIFSYNAMGWYRQAPGKERELVAAITSGDSTNYADSVKGRFTISRDNAKNTVYLQMNSLKPEDTAVYYCAADPVLPAFGYVGTSLGDYWGQGTQVTVSS
  polyreactivity (PSR sort gate): low polyreactivity

## QVQLVESGGGIVQAGGSLRLSCAASGSTFYRYVMGWYRQAPGKERELVAAISWSGGSTYYADSVKGRFTISRDNAKNTVYLQMNSLKPEDTAVYYCAAVHKVGWSRHYDYWGQGTQVTVSS
  polyreactivity (PSR sort gate): high polyreactivity

## QVLLQEIGGGLVQAGGSLRLCCAASGYISGDQFMGWYRQAPGKEPECVAGIGNGTNSNYADSVKGRFTTSRDNAKNTVYLQMNILKPEDTAVYYCAADPSDGSTLAFWGQGTQVTVSS
  polyreactivity (PSR sort gate): high polyreactivity

## QVQLVESGGGLVQAGGTLRLSCAASGRTFNYAMGWYRQAPGKERELVATITSGGSTNYADSVKGRFTISRDNAKNTVYLQLNSLKPEDTAVYYCNRDIPPGNYYKALYYYWGQGTQVTVSS
  polyreactivity (PSR sort gate): low polyreactivity

## QVQLVESGGGLVQAGGSLRLSCAASGRISSAYAMGWYRQAPGKERELVAAISSGTRTNYADSVKGRFTMSRDNAKNTVYLQMNSLKPEDTAVYYCNAVPGYVYYYQYWGQGTQVTVSS
  polyreactivity (PSR sort gate): high polyreactivity

## QVQLVESGGGLVQAGGSLRLSCAASGITFVYYTMGWYRQAPGKERELVASITWDGRSTYYADSVKGRFTISRDNAKNTVYLQMNSLKPEDTAVYYCNRDRVSGGKYNYWGQGTQVTVSS
  polyreactivity (PSR sort gate): low polyreactivity

## QVQLVESGGGLVQAGGSLRLSCAASGRTFGIYAMGWYRQAPGKEREFVAAISWSGTSTHYADSVKGRFTISRDNAKNTVYLQMNSLKPEDTAVYYCNADSRTYRYYWSYGYWGQGTQVTVSS
  polyreactivity (PSR sort gate): high polyreactivity

## QVQLVESGVGLVKAGGSLRLSCAASGSTFNGYGMGWYRQAPGKERELVAAMSWSGGSTYYADSVKGRFTISRDNAKNTGYLLMNSLKPEDTAVYYCAALTHYGGYGYTYDYWGQGTQVTVSS
  polyreactivity (PSR sort gate): low polyreactivity

## QVQLVESGGGLVQAGGSLRVSWAACGSTFYGYGMGWYRQAPWKERELVAAITGSGDTTYYADSVKGRFTISRDNAKNTVYLQMNSLKPEDTAVYYCAADASSKLYEYWGQGTQVTVSS
  polyreactivity (PSR sort gate): low polyreactivity

## QVQLVESGGGLVQAGGSLRLSCAASGSIFRRNAMGWYRQAPGKERELVAAIRSGGGTNYADSVKGRFTISRDNAKNTVYLQMNSLKPEDTAVYYCAAVYERYYLFEYDYWGQGTQVTVSS
  polyreactivity (PSR sort gate): low polyreactivity

## QVQLVESGGGLVQAGGSLRLSCAASGRIFRPNTMGWYRQAPGKERELVASISLSAGSTYYADSVKGRFTISRDNAKNTVFLQMNSLKPEDTAVYYCNATYLSWYRYKYNYWGQGTQVTVSS
  polyreactivity (PSR sort gate): low polyreactivity

## QGQLVESGGGLVQAVGSLRLSCAASGITLRIYAMGWYRQAPGKEREMVAGITSGGSTNYADSVKGRFTLSRDNAKNTVYLQMNSLKPEDTAVYYCAARQVRTSKLHMGYWGQGTQVTVSS
  polyreactivity (PSR sort gate): low polyreactivity

## QVQLVESGGGLVQAGGSLRLSCAASGLTFDAYAMGWSRPAPGKERELVAAISWSGGSTYYAASVKGRFTISRDNAKNTVYLQMNSLKPEDTAVYYCNARYAQFRYWGQGTQVTVSS
  polyreactivity (PSR sort gate): high polyreactivity

## QVQLVESGGGLVQAGGSLRLSCAASGITFYYNAMGWYRQAPGKERELVADISARGGSTYYADSVKGRFTISRDNAKNTVYLQMNCLIPEDTAVYYCNTYPKKKRPNEYDYWGQGTQVSVSS
  polyreactivity (PSR sort gate): high polyreactivity

## QVQLVESGGGLVQAGGSLRLSCAASGFIFRDNAMGWYRQAPGKERELVAAISERGGRTYYADSVKGRFTISRDNEKNTVYLQMISLKPEDTAVYYCAAEDIANFYYWGQGTQVTVSS
  polyreactivity (PSR sort gate): high polyreactivity

## QVQLVESGGGLVQAGGSLRLSCAASGSTYAFYAMGWYRQAPGKERELVAAITSGGSTKYADSVKGRFTISRDNAKNTVYLQMNSLKPEDTAFYYCAARSRWSKLFRYDYWGQGTQVTVSS
  polyreactivity (PSR sort gate): high polyreactivity

## QVQLVESGGGLGQAGGSLRLSCAASGFTFYYYAMGWYRQAPGKERELVAAISYSGGSTYYADSVKGRFTISRDNAKNTVYLQMNSLKPEDTARYYCAADLSTYSRGFDYWGQGTQVTVSS
  polyreactivity (PSR sort gate): high polyreactivity

## QVQLVESGGGLVQAGGSLRLSCAASGRILPLYAMGWYRQAPGKDRELVALIDSGGSTNYADSVKGRFTISRDNAKNTVYLQMNSLKPEDTAVYYCAAVVTAQAYAYFTYGYDYWGQGTQVTVSS
  polyreactivity (PSR sort gate): low polyreactivity

## QVQLVESGGGLVQAGGSLRLSCAASGFTFLAYAMGWYRQAPGKERELGAAISKSGGSTYYADSVKGRFTISRDNAKITVYLQMNSLKPEDTAVYYCNAGRRIKFYGSYDYWGQGTQVTVSS
  polyreactivity (PSR sort gate): high polyreactivity

## QVQLVESGGGLVQAGGSLRLSCAASGITFDGYAMGWYRQAPGKERELVAAITYSGGRTYYADSVKGRFTISRDNAKNTVYLQMNCLKPDDTAVYYCAVVSRRLYEYDYWGQGTQVTVSS
  polyreactivity (PSR sort gate): high polyreactivity

## QVQLVESGGGLVQAGGSLRLSCAASGITFYRYAMGWYRQAPGKERELVAAITSSGGSTYYADSVKGRFTISRDNAKNTVYLQMNSLKPQDTAVYYCAARDLGRYPPKLYYWGQGTQVTVSS
  polyreactivity (PSR sort gate): high polyreactivity

## QVQLVESGGGLVQAGGSLRLSCAPSGFIFGSHAMGWYRQARGKERELVAAISARGGRTYYADSVKERFTISRDNAKNTVYLQMNSLKPADSAVYYCATLDTTGVNYWGQGTQVTVSS
  polyreactivity (PSR sort gate): high polyreactivity

## QDQLVDSGGGLVQAGGSLSLSCAASGSILRTYAMGWYRQAPGKERELVAAISYRGVSTYYADSVKGRFTISRDNAKNTVYLQMNSLKPEDTAVYYCAADQLSDEYDYWGQGTQVTVSS
  polyreactivity (PSR sort gate): high polyreactivity

## QVQLVESGGGLVQAGGSLRLSCAASGRTFPGYAMGWYRQAPGKERELVAAITSSGDDTYYADSVKGRFTISRDNAKNTVYLQMYSLKPEDTAVYYCRLFRRSADSSFDYEYWGQGTQVTVSS
  polyreactivity (PSR sort gate): low polyreactivity

## QVQLVESGGGLVQAGGSLRLSCSASGLTFNFNAMGWYRQAPGKERELVAAISYRAGSTYYADSVKGRFTISRDNAKNTVYLQMNSLKPEDTAVYYCAADGYYYVKSGTYWSDYWGQGTQVTVSS
  polyreactivity (PSR sort gate): low polyreactivity

## QVQLVESGGGLVQAGGSLRLSCAASGSTFTIYAMGGYRQAPGKERELVAAITRGGSTNYADSVKGRFTISRDNAKNTVYLQMNSLKPEDTAVYYCNKVVPGYSAAKYDYWGQGTQVTVSS
  polyreactivity (PSR sort gate): high polyreactivity

## QVQLVESGGGLVQAGGSLRLSCVASGRTFSRYAMGWYRQAPGKERELVAAISRRGGSTYYADSVKGRFTISRDNAKNTVYLQMNSLKPEDTAVYYCAAGYITWGSGNWVVTPYDYWGLGTQVTVSS
  polyreactivity (PSR sort gate): high polyreactivity

## QVQLVESGGGLVQAGGSLRLSCAASGLIFWYYAMGWYRQAPGKERELVATISWSGGSTYYADSVKGRFTISRDNAKNTVYLQMNSLKPEDTAVYYCAAVGFRAYVARGYWYYYWGQGTQVTVSS
  polyreactivity (PSR sort gate): high polyreactivity

## QVQLVESGGGLVQAGGSLRLSCADSGRTFVSNAMGWYRQAPGKERELVAAISGSGGITYYADSVKGRFTISRDNAKNTVYLQMNSLKPEDTAVYYCNADSSGWFPFDYWGQGTQVTVSS
  polyreactivity (PSR sort gate): low polyreactivity

## QVQLVESGGGLVQAGGSLRLSCAASGSTFSFYAMGWYRQAPGKERELVAAISWSDGSTYYADSVKGRFTISRDNAKNTVYLQMNSLKPEDTAVYYCAARRLAYIFYTVGYDYWGQGTQVTVSS
  polyreactivity (PSR sort gate): low polyreactivity

## QVQLVESGGGLVQAGGSLRLSCAASGRIFGSYAMGWYRQAPGKERELVAAISWRGTSTYYADSVKGRFTISRDNAKNTVYLQMNSLKPEDTAVYYCAARGLWPYDYWGQGTQVTVSS
  polyreactivity (PSR sort gate): low polyreactivity

## QFQLVESGGGLVQAGGSLRISCAASGSIFLFYAMGWYRKAPGKERELVAAIDQSGGSTYYADSVKGRFTFSRDNAKKTVYFQMNSLKPEDTAVYYSAAVHSLYWLGDDTYGYDYWGQGTQVTVSS
  polyreactivity (PSR sort gate): low polyreactivity

## QVQLVESGGGLVQAGGSLRLSCAASGFTFEYYPMGWYRQAPGKERELVADITTSSAGTYYADSVKGRFTISRDNAKNTFYLQMNSLKPEDTAVYYCNRDALNTGEDLDYWGQGTQVSVSS
  polyreactivity (PSR sort gate): low polyreactivity

## QVQLVESGGGLVQAGGSLRFSCAASGSTFYYYAMGWYRQAPGKERELVAAINTSGGITYYADSVKGRFTISRDNAKNTVYLQMNSLKPEDTAVYYCATQLWDRYGFGYWGQGTQVTVSS
  polyreactivity (PSR sort gate): high polyreactivity

## QDQLVESGGGIVQAGGSLRLSCAASGSTFYENAMGWYRQAPGKERELVAAITWSGGRTYYADSVKGRFTISRDNAKNTVYLQMNSLKPEDTAVYYCAALYGVSEEDDYWGQGTQVTVSS
  polyreactivity (PSR sort gate): high polyreactivity

## QVQLVESGGGLVQAGGSLRLSCAASGSIFSYNAMGWYRKAPGKERELVAAIRASGGDTYYADSVKGRFTISRDNAKNTVYLQMNSLKPEDTAVYYCAARTYAHHYASHGYWGQGTQVTVSS
  polyreactivity (PSR sort gate): low polyreactivity

## QVQLVESGGGLVQAGGSLRLSCAASGFTFDYYAMGWYRQAPGKERELVATITSGGRTNYADSVKGRFTLSRDNAKNTVYLQMNSLNPEDTAVYYCAVDWWNVEYFYSATSGDYWGQGTQVTVSS
  polyreactivity (PSR sort gate): low polyreactivity

## QVQLVESGGGLVQAGGSLRLSCAASGLIFATNAMGWYRQAPGKERELVATITRSAGRTYYADSVKGRFTISRDNAKNPVYLQMNSLKPEDTAVYYCAASYWDTEPGYREYDYWGQGTQVTVSS
  polyreactivity (PSR sort gate): low polyreactivity

## QVQLVESGGVLVQAGVSLRLSCAASGRTFFRYTMGWYRQAPGKERELVAAISRSDGSTYYADSVKGRFTISRDNAKNTVYLQMNSLKPEDTAVYYCAKSLPSGYYYWGQGTQVTVSS
  polyreactivity (PSR sort gate): low polyreactivity
